According to patent publication WO2008118324A2 (dated 2008):
Each block holds one binder with its values, some of them ahead of it.

Experiments:
[1] = molecular target: T1, human UPK-Ib expressed on the surface of cells (human, UniProt O75841 1-260); assay: flow cytometry, antibody at 2 ug/mL on A549 and EKVX cells
T1 construct: whole, on cells; also called uroplakin Ib; UPK-1
T1 sequence (looked up): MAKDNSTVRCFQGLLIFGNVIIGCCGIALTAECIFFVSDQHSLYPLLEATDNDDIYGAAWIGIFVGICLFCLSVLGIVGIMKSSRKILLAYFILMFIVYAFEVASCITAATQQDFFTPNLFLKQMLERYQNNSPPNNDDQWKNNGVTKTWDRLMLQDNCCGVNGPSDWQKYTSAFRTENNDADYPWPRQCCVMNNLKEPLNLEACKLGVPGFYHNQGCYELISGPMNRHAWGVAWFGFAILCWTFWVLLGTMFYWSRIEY

[2] = molecular target: T1, human UPK-Ib expressed on the surface …; assay: flow cytometry on a transitional cell carcinoma line

binding result [1]: binds
B1: chimeric 1G9 containing the enhancing Fc mutant (antibody, V domains shown)
VH: QVQLQQPGAELVRPGSSVKVSCKASGYTFSSYWMHWVKQRPIQGLEWIGNIDPSDSETHYNQKFKDKATLTVDKSSSTAYMQLSSLTSEDSAVYYCARSGAGTGPWLAYWGQGTLVTVSA
VL: DIVMTQSPSSLTVTAGEKVTMTCKSSQSLLNSGNQKNYLTWYQQKPGQPPNPLIYWASTRESGVPDRFTGSGSGTDFTLTISSVQAEDLAVYYCQNDYSYPFTFGSGTKLEIKR
notes: domain: C-kappa segment; They are not tied to this construct; also called chlG9-mut; chlG9 Fc mut; not shown: human IgG1 constant region carrying the 'enhancing Fc mutant'

binding result [2]: binds
B2: 1G9 monoclonal antibody (murine) (antibody, V domains shown)
VH: B1 VH
VL: DIVMTQSPSSLTVTAGEKVTMTCKSSQSLLNSGNQKNYLTWYQQKPGQPPNPLIYWASTRESGVPDRFTGSGSGTDFTLTISSVQAEDLAVYYCQNDYSYPFTFGSGTKLEIK
notes: Mouse (BALB/c) hybridoma antibody, tested as culture supernatant and detected with anti-mouse IgG; also called 1G9 MAb

binding result [2]: binds
B3: 5H9 monoclonal antibody (murine) (antibody, V domains shown)
VH: EVQLVESGGGLVQPKGSLKLSCAASGFSFNTYAMNWVRQAPGKGLEWVARIRSKSNNYATYYADSVKDRFTISRDDSESMLYLQMNNLKTEDTAMYYCVRQGDGYYVGWFAYWGQGTLVTVSA
VL: DIQMTQTTSSLSASLGDRVTISCRASQDISNYLNWYQQKPDGTVKLLIYYTSRLHSGVPSRFSGSGSGTDYSLTISNLEQEDIATYFCQQGNTLPFTFGSGTKLEIK
notes: Mouse (BALB/c) hybridoma antibody, tested as culture supernatant and detected with anti-mouse IgG; also called 5H9 MAb; murine 5H9
